# Measurements reported in patent US20220098305A1.
# Biological target: human CEA (hu N(A2-B2)A-avi-His B) (human)
# Experiment: SPR (Biacore T200), hu N(A2-B2)A-avi-His B immobilised, Fab as analyte, 1:1 Langmuir fit
# human CEA (hu N(A2-B2)A-avi-His B) (human), sequence (P06731 whole entry): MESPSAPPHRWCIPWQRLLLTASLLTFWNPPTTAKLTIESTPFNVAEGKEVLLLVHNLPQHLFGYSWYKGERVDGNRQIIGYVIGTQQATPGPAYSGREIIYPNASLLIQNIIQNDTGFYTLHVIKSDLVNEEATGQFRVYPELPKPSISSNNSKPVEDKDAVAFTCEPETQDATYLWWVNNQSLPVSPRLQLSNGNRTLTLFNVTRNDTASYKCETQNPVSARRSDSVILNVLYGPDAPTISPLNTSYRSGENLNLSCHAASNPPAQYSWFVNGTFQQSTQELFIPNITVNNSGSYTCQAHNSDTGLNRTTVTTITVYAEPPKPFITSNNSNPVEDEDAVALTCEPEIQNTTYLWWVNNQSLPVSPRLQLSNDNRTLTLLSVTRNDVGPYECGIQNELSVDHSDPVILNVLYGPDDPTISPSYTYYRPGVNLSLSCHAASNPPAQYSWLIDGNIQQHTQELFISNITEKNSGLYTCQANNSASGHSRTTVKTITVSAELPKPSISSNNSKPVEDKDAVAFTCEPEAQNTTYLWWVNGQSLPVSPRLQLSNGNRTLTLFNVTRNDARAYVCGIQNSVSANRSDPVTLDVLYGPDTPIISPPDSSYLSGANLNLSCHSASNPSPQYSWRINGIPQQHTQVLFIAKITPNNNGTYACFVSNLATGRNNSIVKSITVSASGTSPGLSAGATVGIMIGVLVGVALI
row,Binder,Kd [nM]
1,"P1AE4139, Fab derived from P1AE2176 (Fab, V domains shown) VH: EVQLLESGGGLVQPGGSLRLSCAASGFTFTDYYMNWVRQAPGKGLEWVGFIGNKANGYTTEYSASVKGRFTISRDNSKNTLYLQMNSLRAEDTAVYYCTRDRGLRFYFDYWGQGTTVTVSS VL: EIVLTQSPATLSLSPGERATLSCRASSSVTYIHWYQQKPGSSPKSWIYATSNLASGIPARFSGSGSGTDFTLTISSLEPEDFAVYYCQHWSSKPPTFGQGTKLEIK",7.58
2,"P1AE4138, Fab derived from P1AE2167 (Fab, V domains shown) VH: EVQLLESGGGLVQPGGSLRLSCAASGFTFTDYYMNWVRQAPGKGLEWLGFIGNKANGYTTEYSASVKGRFTISRDKSKNTLYLQMNSLRAEDTATYYCTRDRGLRFYFDYWGQGTTVTVSS VL: EIVLTQSPATLSLSPGERATLSCRASSSVTYIHWYQQKPGQAPRSWIYATSNLASGIPARFSGSGSGTDFTLTISSLEPEDFAVYYCQHWSSKPPTFGQGTKLEIK",1.47
3,"P1AE4137, Fab derived from P1AE2166 (Fab, V domains shown) VH: EVQLLESGGGLVQPGGSLRLSCAASGFTFTDYYMNWVRQAPGKGLEWLGFIGNKANGYTTEYSASVKGRFTISRDKSKNTLYLQMNSLRAEDTATYYCTRDRGLRFYFDYWGQGTTVTVSS VL: EIVLTQSPATLSLSPGERATLSCRASSSVTYIHWYQQKPGSSPKSWIYATSNLASGIPARFSGSGSGTDFTLTISSLEPEDFAVYYCQHWSSKPPTFGQGTKLEIK",11.3
4,"P1AE4142, Fab derived from P1AE2181 (Fab, V domains shown) VH: EVQLLESGGGLVQPGGSLRLSCAASGFTFTDYYMNWVRQAPGKGLEWVGFIGNKANGYTTEYSASVKGRFTISRDKSKNTLYLQMNSLRAEDTAVYYCARDRGLRFYFDYWGQGTTVTVSS VL: EIVLTQSPATLSLSPGERATLSCRASSSVTYIHWYQQKPGSSPKSWIYATSNLASGIPARFSGSGSGTDFTLTISSLEPEDFAVYYCQHWSSKPPTFGQGTKLEIK",2.64

# The next lines start with the values.
row,Kd [nM],Binder
1,0.559,"P1AE0289, CEA (A5B7) Fab (parental murine antibody) (Fab, V domains shown) VH: EVKLVESGGGLVQPGGSLRLSCATSGFTFTDYYMNWVRQPPGKALEWLGFIGNKANGYTTEYSASVKGRFTISRDKSQSILYLQMNTLRAEDSATYYCTRDRGLRFYFDYWGQGTTLTVSS VL: QTVLSQSPAILSASPGEKVTMTCRASSSVTYIHWYQQKPGSSPKSWIYATSNLASGVPARFSGSGSGTSYSLTISRVEAEDAATYYCQHWSSKPPTFGGGTKLEIK"
2,1.7,"P1AE4135, Fab derived from P1AE2164 (Fab, V domains shown) VH: EVQLLESGGGLVQPGGSLRLSCAASGFTFTDYYMNWVRQAPGKGLEWLGFIGNKANGYTTEYSASVKGRFTISRDKSKNTLYLQMNSLRAEDTATYYCTRDRGLRFYFDYWGQGTTVTVSS VL: QTVLTQSPATLSLSPGERATLSCRASSSVTYIHWYQQKPGSSPKSWIYATSNLASGIPARFSGSGSGTDYTLTISSLEPEDFAVYYCQHWSSKPPTFGQGTKLEIK"
3,7.62,"P1AE4140, Fab derived from P1AE2177 (Fab, V domains shown) VH: EVQLLESGGGLVQPGGSLRLSCAASGFTFTDYYMNWVRQAPGKGLEWVGFIGNKANGYTTEYSASVKGRFTISRDNSKNTLYLQMNSLRAEDTAVYYCTRDRGLRFYFDYWGQGTTVTVSS VL: EIVLTQSPATLSLSPGERATLSCRASSSVTYIHWYQQKPGQAPRSWIYATSNLASGIPARFSGSGSGTDFTLTISSLEPEDFAVYYCQHWSSKPPTFGQGTKLEIK"
4,1.25,"P1AE4136, Fab derived from P1AE2165 (Fab, V domains shown) VH: EVQLLESGGGLVQPGGSLRLSCAASGFTFTDYYMNWVRQAPGKGLEWLGFIGNKANGYTTEYSASVKGRFTISRDKSKNTLYLQMNSLRAEDTATYYCTRDRGLRFYFDYWGQGTTVTVSS VL: QTVLTQSPATLSLSPGERATLSCRASSSVTYIHWYQQKPGQAPRLLIYATSNLASGIPARFSGSGSGTDFTLTISSLEPEDFAVYYCQHWSSKPPTFGQGTKLEIK"
5,1.83,"P1AE4141, Fab derived from P1AE2179 (Fab, V domains shown) VH: EVQLLESGGGLVQPGGSLRLSCAASGFTFTDYYMNWVRQAPGKGLEWVGFIGNKANGYTTEYSASVKGRFTISRDKSKNTLYLQMNSLRAEDTAVYYCARDRGLRFYFDYWGQGTTVTVSS VL: QTVLTQSPATLSLSPGERATLSCRASSSVTYIHWYQQKPGSSPKSWIYATSNLASGIPARFSGSGSGTDYTLTISSLEPEDFAVYYCQHWSSKPPTFGQGTKLEIK"
6,2.92,"P1AE4143, Fab derived from P1AE2182 (Fab, V domains shown) VH: EVQLLESGGGLVQPGGSLRLSCAASGFTFTDYYMNWVRQAPGKGLEWVGFIGNKANGYTTEYSASVKGRFTISRDKSKNTLYLQMNSLRAEDTAVYYCARDRGLRFYFDYWGQGTTVTVSS VL: EIVLTQSPATLSLSPGERATLSCRASSSVTYIHWYQQKPGQAPRSWIYATSNLASGIPARFSGSGSGTDFTLTISSLEPEDFAVYYCQHWSSKPPTFGQGTKLEIK"
